Laboratory results published in patent US10718784B2, “Mitochondrial preproteins as markers for Alzheimer's disease” (Albert-Ludwigs-Universität Freiburg, priority 2014, dated 2020).

Tests used:
[1] = target: T1, Cym1 (Saccharomyces cerevisiae, UniProt P32898); test: Peptide degradation assay in soluble mitochondrial extracts; format: biochemical, yeast
T1 construct: endogenous in cells; host or cells: soluble extract of wild-type S. cerevisiae mitochondria (cym1Δ extract as control)
T1 sequence (P32898 17-989): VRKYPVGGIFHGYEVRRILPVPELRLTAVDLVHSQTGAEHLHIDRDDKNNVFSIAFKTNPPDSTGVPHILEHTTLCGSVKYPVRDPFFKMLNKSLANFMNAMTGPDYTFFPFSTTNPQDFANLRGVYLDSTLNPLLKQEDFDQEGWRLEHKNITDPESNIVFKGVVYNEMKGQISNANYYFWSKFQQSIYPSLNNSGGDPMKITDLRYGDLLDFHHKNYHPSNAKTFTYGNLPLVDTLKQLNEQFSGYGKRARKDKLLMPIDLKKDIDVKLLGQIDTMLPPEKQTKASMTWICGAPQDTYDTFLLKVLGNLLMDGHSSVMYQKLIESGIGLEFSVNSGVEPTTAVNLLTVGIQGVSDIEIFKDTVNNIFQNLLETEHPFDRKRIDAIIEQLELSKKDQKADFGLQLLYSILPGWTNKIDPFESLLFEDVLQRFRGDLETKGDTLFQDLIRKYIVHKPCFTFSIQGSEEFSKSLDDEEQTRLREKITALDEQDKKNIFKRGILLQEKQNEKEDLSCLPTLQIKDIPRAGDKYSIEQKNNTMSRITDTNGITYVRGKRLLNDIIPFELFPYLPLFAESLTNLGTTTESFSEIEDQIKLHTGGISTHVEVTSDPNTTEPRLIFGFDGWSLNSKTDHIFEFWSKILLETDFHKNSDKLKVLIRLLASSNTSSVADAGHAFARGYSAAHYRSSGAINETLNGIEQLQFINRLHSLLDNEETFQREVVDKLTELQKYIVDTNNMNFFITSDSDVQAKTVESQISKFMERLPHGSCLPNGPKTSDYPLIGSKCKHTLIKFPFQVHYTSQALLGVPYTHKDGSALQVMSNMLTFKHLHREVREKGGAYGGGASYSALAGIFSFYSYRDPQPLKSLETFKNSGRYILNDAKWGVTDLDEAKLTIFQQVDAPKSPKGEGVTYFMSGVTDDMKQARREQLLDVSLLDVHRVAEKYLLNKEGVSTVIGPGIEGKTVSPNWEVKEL
Protocol: (§1) Isolated mitochondria from yeast strains grown under respiratory conditions were washed with SEM buffer, re-isolated and resuspended in reaction buffer (250 mM sucrose, 10 mM MOPS/KOH, pH 7.2, 80 mM KCl, 5 mM MgCl2, 5 mM KH2PO4) to a concentration of 3 μg/μl. Mitochondria were subjected to sonication (five times 30 s with 30 s breaks on ice, Sonifier250, Branson) followed by centrifugation at 100,000×g for 45 min at 4° C. The obtained supernatant was used for processing and degradation experiments. 0.5 μl of radiolabelled precursor protein and/or various peptides in different concentrations were added to 9 μl of yeast soluble mitochondrial extracts. Reactions were stopped by addition of 4× Laemmli buffer (8% (w/v) SDS, 0.08% (w/v) bromophenol blue, 40% (v/v) glycerol, 240 mM Tris/HCl, pH 6.8) containing 5% (v/v) β-mercaptoethanol and analyzed by SDS-PAGE followed by autoradiography and immunodecoration. Radiolabelled precursor proteins were synthesized with the transcription/translation rabbit reticulate lysate system (Promega) in the presence of ^35S-methionine. Chemical amounts of Cym1 and control protein (Oct1) were synthesized in vitro using the RTS wheat germ system (5 PRIME). 0.5 μl of cell-free translation product was used in the processing assays.

[2] = target: T2, Purified yeast MPP (Saccharomyces cerevisiae, UniProt P10507+P11914); test: MPP activity assay: processing of [35S]F1β precursor by purified MPP; format: biochemical, S. cerevisiae; conditions: radiolabelled F1β precursor, increasing peptide concentrations
T2 construct: poly-histidine (N); made in house; host or cells: E. coli BL21, plasmid pVG18
Protocol: E. coli BL21 cells were transformed with plasmid pVG18 (32) that enables the transcription of a single mRNA encoding both β- (with N-terminal poly-histidine tag) and α-MPP subunits (Mas1 and Mas2) from S. cerevisiae. Cell cultures were grown in LB medium (10 g/l tryptone, 5 g/l yeast extract, 10 g/l NaCl) containing 100 μg/ml ampicillin at 37° C. to an OD600 of 0.6. Expression was induced by addition of 1 mM IPTG (Isopropyl β-D-1-thiogalactopyranoside, Formedium) for 4 h. Cells were harvested and snap-frozen in liquid nitrogen. Pellets were resuspended in binding buffer (20 mM Na3PO4, 200 mM NaCl, 20 mM imidazole, pH 7.4) containing 1 mg/ml lysozyme (Sigma) and 10 μg/ml DNaseI (Sigma) and incubated for 1 h at 4° C. for cell lysis. The cell extract was centrifuged at 4000×g to remove unbroken cells. The supernatant was further centrifuged at 100,000×g for 30 min at 4° C. The obtained supernatant was incubated with Ni-NTA resin (Qiagen) for 3 h at 4° C. The resin was washed four times with binding buffer. Bound proteins were eluted with Elution buffer (20 mM Na3PO4, 200 mM NaCl, 200 mM imidazole, pH 7.4). […]
Purified yeast MPP (0.15 μg protein) was incubated in processing buffer (10 mM HEPES/KOH, pH 7.4, 0.1 mM MnCl2, 1 mM DTT, 0.1 mg/ml BSA) for 15 min at 30° C. […] The samples were analyzed by SDS-PAGE followed by autoradiography. Bands were quantified using the Multi Gauge software (Fuji Film). […]

[3] = target: T3, MPP (Saccharomyces cerevisiae, UniProt P10507+P11914); test: In vitro processing of [35S]Sod2 precursor in yeast soluble mitochondrial extracts; format: biochemical
T3 construct: endogenous in cells; host or cells: soluble extract of mitochondria isolated from S. cerevisiae strains (wild-type, cym1Δ)
T3 sequence (P10507 21-462): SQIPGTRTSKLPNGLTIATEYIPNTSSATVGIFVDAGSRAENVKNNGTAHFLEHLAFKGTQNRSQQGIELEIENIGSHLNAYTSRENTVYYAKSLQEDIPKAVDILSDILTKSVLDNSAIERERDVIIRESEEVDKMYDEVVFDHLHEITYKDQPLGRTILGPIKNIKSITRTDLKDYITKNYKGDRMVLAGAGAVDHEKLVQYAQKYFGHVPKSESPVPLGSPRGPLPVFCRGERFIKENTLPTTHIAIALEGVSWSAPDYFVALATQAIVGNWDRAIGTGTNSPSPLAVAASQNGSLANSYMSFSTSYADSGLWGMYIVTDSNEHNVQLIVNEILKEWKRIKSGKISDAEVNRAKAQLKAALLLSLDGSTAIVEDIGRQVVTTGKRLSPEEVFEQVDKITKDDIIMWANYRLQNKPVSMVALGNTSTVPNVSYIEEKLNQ
T3 sequence (P11914 14-482): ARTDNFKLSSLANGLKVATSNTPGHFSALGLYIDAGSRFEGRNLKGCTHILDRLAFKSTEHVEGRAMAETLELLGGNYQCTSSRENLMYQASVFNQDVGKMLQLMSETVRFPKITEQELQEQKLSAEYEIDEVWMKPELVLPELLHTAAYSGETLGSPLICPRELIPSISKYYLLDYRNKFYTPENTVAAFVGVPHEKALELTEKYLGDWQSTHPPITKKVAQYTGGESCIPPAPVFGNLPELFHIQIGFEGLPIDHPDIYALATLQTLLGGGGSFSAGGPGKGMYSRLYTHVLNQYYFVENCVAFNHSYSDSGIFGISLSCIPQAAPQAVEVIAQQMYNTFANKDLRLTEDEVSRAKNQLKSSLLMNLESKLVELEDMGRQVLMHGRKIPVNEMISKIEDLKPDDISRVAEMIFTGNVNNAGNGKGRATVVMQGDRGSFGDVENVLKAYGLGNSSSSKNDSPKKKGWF
Protocol: as §1

[4] = target: T4, Oct1 (Saccharomyces cerevisiae, UniProt P35999); test: In vitro processing of [35S]Cox4 precursor in yeast mitochondrial extract in the presence of octapeptides; format: biochemical; conditions: cym1Δ mitochondrial extract
T4 construct: endogenous in cells; host or cells: soluble extract of wild-type and cym1Δ S. cerevisiae mitochondria
T4 sequence (P35999 38-772): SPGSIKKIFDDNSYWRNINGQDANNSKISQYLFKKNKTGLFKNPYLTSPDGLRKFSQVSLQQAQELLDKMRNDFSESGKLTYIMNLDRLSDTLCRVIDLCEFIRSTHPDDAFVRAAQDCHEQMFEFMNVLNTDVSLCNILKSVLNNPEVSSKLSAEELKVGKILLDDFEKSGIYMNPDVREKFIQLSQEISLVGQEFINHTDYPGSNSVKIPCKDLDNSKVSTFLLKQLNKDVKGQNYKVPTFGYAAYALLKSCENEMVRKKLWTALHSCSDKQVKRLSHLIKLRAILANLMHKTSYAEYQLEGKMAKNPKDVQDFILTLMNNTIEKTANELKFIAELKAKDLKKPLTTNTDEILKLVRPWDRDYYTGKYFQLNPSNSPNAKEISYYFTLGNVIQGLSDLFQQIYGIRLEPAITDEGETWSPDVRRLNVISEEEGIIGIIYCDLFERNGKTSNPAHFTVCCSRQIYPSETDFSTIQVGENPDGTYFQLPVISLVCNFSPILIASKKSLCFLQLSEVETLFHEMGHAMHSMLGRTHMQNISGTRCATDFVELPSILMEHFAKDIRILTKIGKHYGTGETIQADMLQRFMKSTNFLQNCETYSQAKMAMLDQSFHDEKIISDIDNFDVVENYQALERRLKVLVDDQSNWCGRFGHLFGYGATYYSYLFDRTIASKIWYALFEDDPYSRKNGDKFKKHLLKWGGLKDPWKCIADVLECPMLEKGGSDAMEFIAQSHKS
Protocol: as §1

In the case of “Aβ^scrambled: scrambled Aβ peptide KVKGLIDGDHIGDLVYEFMDSNSAIFREGVGAGHVHVAQVEF (SEQ ID No.: 19)”, the “Effect on Cox4 presequence peptide degradation” value ([1]; WT soluble mitochondrial extract, 10 μM Cox4 presequence peptide in each reaction) is reported as “not”.

With “Cox4^preseq.: typical presequence peptide MLSLRQSIRFFKPATRTLCSSRYLL (SEQ ID No.: 15)” the “Processing activity of purified MPP on F1β precursor in the presence of peptide” value [2] was “able to inhibit purified MPP”, the “In vitro processing of radiolabelled Sod2 precursor by MPP in the presence of presequence peptide” value ([3]; cym1Δ mitochondrial extract (absence of Cym1), 10 μM Cox4 presequence peptide) was “efficiently blocked” and the “Degradation of the peptide in wild-type mitochondrial extract” value ([1]; wild-type (WT) extract, peptide 10 μM) was “Rapid degradation”.

For “octapeptides: octapeptide derived from the Oct1 substrate Sdh1, FTSSALVR (SEQ ID No.: 16), EZ Biolab”, the “Processing activity of purified MPP on F1β precursor in the presence of peptide” value [2] was “not affected” and the “Oct1-dependent processing step of Cox4 precursor in the presence of octapeptides” value [4] was “specific impairment of the Oct1-dependent processing step”.

B1: cell-free translated Cym1 protein: yeast PreP homolog Cym1 synthesized in vitro using the RTS wheat germ system (protein)
chain: MLRFQRFASSYAQAQAVRKYPVGGIFHGYEVRRILPVPELRLTAVDLVHSQTGAEHLHIDRDDKNNVFSIAFKTNPPDSTGVPHILEHTTLCGSVKYPVRDPFFKMLNKSLANFMNAMTGPDYTFFPFSTTNPQDFANLRGVYLDSTLNPLLKQEDFDQEGWRLEHKNITDPESNIVFKGVVYNEMKGQISNANYYFWSKFQQSIYPSLNNSGGDPMKITDLRYGDLLDFHHKNYHPSNAKTFTYGNLPLVDTLKQLNEQFSGYGKRARKDKLLMPIDLKKDIDVKLLGQIDTMLPPEKQTKASMTWICGAPQDTYDTFLLKVLGNLLMDGHSSVMYQKLIESGIGLEFSVNSGVEPTTAVNLLTVGIQGVSDIEIFKDTVNNIFQNLLETEHPFDRKRIDAIIEQLELSKKDQKADFGLQLLYSILPGWTNKIDPFESLLFEDVLQRFRGDLETKGDTLFQDLIRKYIVHKPCFTFSIQGSEEFSKSLDDEEQTRLREKITALDEQDKKNIFKRGILLQEKQNEKEDLSCLPTLQIKDIPRAGDKYSIEQKNNTMSRITDTNGITYVRGKRLLNDIIPFELFPYLPLFAESLTNLGTTTESFSEIEDQIKLHTGGISTHVEVTSDPNTTEPRLIFGFDGWSLNSKTDHIFEFWSKILLETDFHKNSDKLKVLIRLLASSNTSSVADAGHAFARGYSAAHYRSSGAINETLNGIEQLQFINRLHSLLDNEETFQREVVDKLTELQKYIVDTNNMNFFITSDSDVQAKTVESQISKFMERLPHGSCLPNGPKTSDYPLIGSKCKHTLIKFPFQVHYTSQALLGVPYTHKDGSALQVMSNMLTFKHLHREVREKGGAYGGGASYSALAGIFSFYSYRDPQPLKSLETFKNSGRYILNDAKWGVTDLDEAKLTIFQQVDAPKSPKGEGVTYFMSGVTDDMKQARREQLLDVSLLDVHRVAEKYLLNKEGVSTVIGPGIEGKTVSPNWEVKEL
With B1 the “MPP processing activity (Sod2 precursor) after addition of Cym1 protein” value ([3]; cym1Δ mitochondrial extract) was “could be restored”.
